Measurements taken from publication PMC13139468, “A model for drug transport across two membranes of Gram-negative bacteria by an MFS tripartite assembly” (Nature Communications, 2026).

B1: modified free EmrA (N-terminal residues 1-47 replaced by residues 1-27 of AcrA) (other)
chain: CDDHFEETDDAYVAGNQIQIMSQVSGSVTKVWADNTDFVKEGDVLVTLDPTDARQAFEKAKTALASSVRQTHQLMINSKQLQANIEVQKIALAKAQSDYNRRVPLGNANLIGREELQHARDAVTSAQAQLDVAIQQYNANQAMILGTKLEDQPAVQQAATEVRNAWLALERTRIISPMTGYVSRRAVQPGAQISPTTPLMAVVPATNMWVDANFKETQIANMRIGQPVTITTDIYGDDVKYTGKVVGLDMGTGSAFSLLPAQNATGNWIKVVQRLPVRIELDQKQLEQYPLRIGLSTLVSVNTTNRDGQVLANKVRSTPVAVSTAREISLAPVNKLIDDIVKANAG
modifications: C25 (AcrA numbering) modified by a palmitoyl acid chain
notes: also called acrAsignal-ΔemrA; free EmrA of pump-EA
B2: wild-type free EmrA (natural protein)
chain: MSANAETQTPQQPVKKSGKRKRLLLLLTLLFIIIAVAIGIYWFLVLRHFEETDDAYVAGNQIQIMSQVSGSVTKVWADNTDFVKEGDVLVTLDPTDARQAFEKAKTALASSVRQTHQLMINSKQLQANIEVQKIALAKAQSDYNRRVPLGNANLIGREELQHARDAVTSAQAQLDVAIQQYNANQAMILGTKLEDQPAVQQAATEVRNAWLALERTRIISPMTGYVSRRAVQPGAQISPTTPLMAVVPATNMWVDANFKETQIANMRIGQPVTITTDIYGDDVKYTGKVVGLDMGTGSAFSLLPAQNATGNWIKVVQRLPVRIELDQKQLEQYPLRIGLSTLVSVNTTNRDGQVLANKVRSTPVAVSTAREISLAPVNKLIDDIVKANAG
notes: also called free EmrA of pump-FA
B3: EmrA (EmrA part of the EmrB-EmrA fusion protein, C-terminal 6His) (natural protein)
chain: B2 chain
notes: also called EmrB-EmrA fusion protein (EmrA part); fused EmrA; not shown: His6, C-terminal, kept

Columns and labels:
[1] = molecular target: T1, EmrB (modified EmrB, the BRIL-EmrB-ALFA part of the EmrB-EmrA fusion protein) (E. coli K-12 strain MG1655, UniProt P0AEJ0 13-498); assay: cryo-EM structure; EmrAB-TolC pump-EA (EmrB-EmrA fusion protein, modified free EmrA, TolC-FLAG), co-expressed and purified as a complex, in peptidisc, 0.7 mg/mL, holey carbon grids; single-particle cryo-EM, 300 kV; maps at 3.13 Å and 3.14 Å; conditions: both partners purified
T1 construct: also called EmrB IM transporter; EmrB-EmrA fusion protein (EmrB part); not shown: BRIL (thermostabilized apocytochrome b562RIL), N-terminal, kept; ALFA, C-terminal, kept
T1 sequence: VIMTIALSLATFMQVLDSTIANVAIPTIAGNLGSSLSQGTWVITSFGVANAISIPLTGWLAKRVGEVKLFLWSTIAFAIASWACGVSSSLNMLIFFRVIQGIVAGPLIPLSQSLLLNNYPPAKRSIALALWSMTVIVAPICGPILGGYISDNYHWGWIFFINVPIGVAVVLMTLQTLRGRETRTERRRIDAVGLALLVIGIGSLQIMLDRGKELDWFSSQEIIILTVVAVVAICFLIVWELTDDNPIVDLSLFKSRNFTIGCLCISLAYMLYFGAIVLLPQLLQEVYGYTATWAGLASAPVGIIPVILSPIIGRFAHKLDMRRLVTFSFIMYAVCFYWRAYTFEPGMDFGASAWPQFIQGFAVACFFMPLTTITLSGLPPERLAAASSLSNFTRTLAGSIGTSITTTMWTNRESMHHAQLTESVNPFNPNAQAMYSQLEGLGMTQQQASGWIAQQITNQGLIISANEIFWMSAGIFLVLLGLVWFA

[2] = molecular target: B3; assay: as above; conditions: both partners purified
[3] = molecular target: T2, TolC (TolC-FLAG) (E. coli K-12 strain MG1655, UniProt P02930 23-493); assay: as above; conditions: both partners purified
T2 construct: also called TolC OM channel; not shown: FLAG, C-terminal, kept
T2 sequence: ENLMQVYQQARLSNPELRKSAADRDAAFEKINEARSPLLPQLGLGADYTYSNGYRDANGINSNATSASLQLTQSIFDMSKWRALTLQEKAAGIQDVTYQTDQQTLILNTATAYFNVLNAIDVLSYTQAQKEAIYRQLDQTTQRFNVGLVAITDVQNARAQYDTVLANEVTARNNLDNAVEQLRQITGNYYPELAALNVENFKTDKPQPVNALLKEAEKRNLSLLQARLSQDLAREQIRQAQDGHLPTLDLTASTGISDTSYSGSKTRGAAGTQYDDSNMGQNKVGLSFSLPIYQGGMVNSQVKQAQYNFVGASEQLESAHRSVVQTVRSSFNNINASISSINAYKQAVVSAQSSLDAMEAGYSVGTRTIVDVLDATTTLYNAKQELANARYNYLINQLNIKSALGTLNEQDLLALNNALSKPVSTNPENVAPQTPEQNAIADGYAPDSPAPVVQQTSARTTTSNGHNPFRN

[4] = molecular target: the molecule itself; assay: as above
[5] = molecular target: T1, EmrB (modified EmrB, the BRIL-EmrB-ALFA …); assay: cryo-EM structure; EmrAB-TolC pump-FA (EmrB-EmrA fusion protein, wild-type free EmrA, TolC-FLAG), co-expressed and purified as a complex, in peptidisc, 0.1 mg/mL, graphene-covered grids; single-particle cryo-EM, 300 kV; maps at 3.59 Å and 3.66 Å; conditions: both partners purified
[6] = molecular target: T2, TolC (TolC-FLAG); assay: as above; conditions: both partners purified
[7] = molecular target: the molecule itself; assay: as above

Row | Binder | binding result [1] | binding result [2] | binding result [3] | stoichiometry N [4] | binding result [5] | binding result [6] | stoichiometry N [7]
1 | B1 | binds | binds | binds | 6 |  |  | 
2 | B2 |  |  |  |  | binds | binds | 6
3 | B3 | binds |  |  |  |  | binds | 
